The term Km denotes the substrate concentration at which the rate is half of its maximum. As a reminder, the kcat is the maximal rate divided by the concentration of active sites. In general, kcat/Km refers to the second-order rate constant that governs catalysis at low substrate concentration. What is called stoichiometry N is a count of units in the complex or per binding partner.

The results in this text go back to PMC2809104, “Crystal Structure and Substrate Specificity of Drosophila 3,4-Dihydroxyphenylalanine Decarboxylase” (PLoS ONE, 2010).

Data set [1] deals with T1, drDDC (Drosophila melanogaster, UniProt P05031, H227W/DEL476-510, form not given).
T1 construct: gene Ddc; homodimer, PLP holoenzyme; residues 1-475
T1 sequence (P05031 1-475 isoform P05031-2 H192W): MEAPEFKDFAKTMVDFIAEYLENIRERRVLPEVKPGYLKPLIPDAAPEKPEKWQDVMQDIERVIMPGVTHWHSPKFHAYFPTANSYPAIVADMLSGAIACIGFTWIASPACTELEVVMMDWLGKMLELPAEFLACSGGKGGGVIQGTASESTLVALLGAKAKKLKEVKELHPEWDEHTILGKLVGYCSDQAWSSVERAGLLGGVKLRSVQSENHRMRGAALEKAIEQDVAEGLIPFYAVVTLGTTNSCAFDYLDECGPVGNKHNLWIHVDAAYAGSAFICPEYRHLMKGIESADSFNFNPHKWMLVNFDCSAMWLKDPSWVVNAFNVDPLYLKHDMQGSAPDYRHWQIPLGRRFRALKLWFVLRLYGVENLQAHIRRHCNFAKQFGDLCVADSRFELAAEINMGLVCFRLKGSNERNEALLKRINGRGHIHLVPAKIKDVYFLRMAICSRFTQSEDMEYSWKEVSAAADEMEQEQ
Description: HPLC-UV of decarboxylated product, Michaelis-Menten fit. Type of data set: biochemical. To be noted: 38°C, 40 µM PLP, 150 mM potassium phosphate pH 7.0. An excerpt: (§1) HPLC-UV of decarboxylated product, Michaelis-Menten fit on drDDC

Data set [2] concerns the target T2, drDDC (Drosophila melanogaster, UniProt P05031, T117A/DEL476-510, form not given).
T2 construct: gene Ddc; homodimer, PLP holoenzyme; residues 1-475
T2 sequence (P05031 1-475 isoform P05031-2 T82A): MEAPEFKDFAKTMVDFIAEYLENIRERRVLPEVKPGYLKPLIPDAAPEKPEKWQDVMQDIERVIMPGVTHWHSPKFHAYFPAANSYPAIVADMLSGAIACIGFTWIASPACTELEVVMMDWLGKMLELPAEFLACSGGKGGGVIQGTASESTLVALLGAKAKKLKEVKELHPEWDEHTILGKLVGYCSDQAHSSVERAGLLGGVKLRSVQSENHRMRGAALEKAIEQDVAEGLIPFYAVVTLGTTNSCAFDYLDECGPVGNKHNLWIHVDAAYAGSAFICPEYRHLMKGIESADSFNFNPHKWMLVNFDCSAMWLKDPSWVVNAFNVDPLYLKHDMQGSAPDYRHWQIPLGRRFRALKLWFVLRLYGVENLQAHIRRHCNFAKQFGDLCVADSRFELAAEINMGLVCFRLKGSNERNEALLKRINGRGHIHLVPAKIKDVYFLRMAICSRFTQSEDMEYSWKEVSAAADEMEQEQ
The data set is described as above. The class given is biochemical. Conditions: 38°C, 40 µM PLP, 150 mM potassium phosphate pH 7.0.
Text: as §1

For data set [3], the target named is T3, drDDC (Drosophila melanogaster, UniProt P05031, T117S/DEL476-510, form not given).
T3 construct: gene Ddc; homodimer, PLP holoenzyme; residues 1-475
T3 sequence (P05031 1-475 isoform P05031-2 T82S): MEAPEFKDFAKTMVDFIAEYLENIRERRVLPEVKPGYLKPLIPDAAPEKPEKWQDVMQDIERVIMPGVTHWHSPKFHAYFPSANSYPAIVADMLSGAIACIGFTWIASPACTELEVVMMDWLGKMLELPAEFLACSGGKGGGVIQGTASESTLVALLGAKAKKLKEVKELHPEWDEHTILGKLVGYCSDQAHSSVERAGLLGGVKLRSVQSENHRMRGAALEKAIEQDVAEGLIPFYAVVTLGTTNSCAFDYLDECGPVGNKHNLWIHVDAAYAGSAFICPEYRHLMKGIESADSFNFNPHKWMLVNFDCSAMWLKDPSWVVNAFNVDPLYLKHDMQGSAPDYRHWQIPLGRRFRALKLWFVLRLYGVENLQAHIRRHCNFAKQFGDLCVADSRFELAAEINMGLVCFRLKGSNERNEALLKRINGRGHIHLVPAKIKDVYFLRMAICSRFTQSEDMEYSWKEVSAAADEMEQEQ
The description is as above. Conditions: 38°C, 40 µM PLP, 150 mM potassium phosphate pH 7.0. Type of data set: biochemical.
Text: as §1

For data set [4], the target named is T4, drDDC (Drosophila melanogaster, UniProt P05031).
T4 construct: gene Ddc; homodimer, PLP holoenzyme; residues 1-475
T4 sequence (P05031 36-510): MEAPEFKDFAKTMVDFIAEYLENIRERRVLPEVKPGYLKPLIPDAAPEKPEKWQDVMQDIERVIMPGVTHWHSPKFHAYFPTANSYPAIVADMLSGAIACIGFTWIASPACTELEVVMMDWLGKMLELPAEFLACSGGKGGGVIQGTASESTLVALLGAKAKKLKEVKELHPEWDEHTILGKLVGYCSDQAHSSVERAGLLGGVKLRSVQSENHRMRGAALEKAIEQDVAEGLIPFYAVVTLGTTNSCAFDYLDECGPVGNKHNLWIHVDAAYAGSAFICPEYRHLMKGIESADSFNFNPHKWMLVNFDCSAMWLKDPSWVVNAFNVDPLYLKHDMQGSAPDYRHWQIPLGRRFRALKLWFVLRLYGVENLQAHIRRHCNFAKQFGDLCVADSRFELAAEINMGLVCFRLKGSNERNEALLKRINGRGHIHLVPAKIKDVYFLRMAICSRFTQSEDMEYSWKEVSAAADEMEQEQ
Description: X-ray crystal structure, […] Å. The class given is binding. To be noted: covalent internal aldimine (Schiff base) with K302.

Substrate in data set [5]: NC(Cc1cccc(O)c1)C(=O)O
Description: HPLC-UV of decarboxylated product, Michaelis-Menten fit. Type of data set: biochemical, Drosophila melanogaster. To be noted: 38°C, 40 µM PLP, 150 mM potassium phosphate pH 7.0, racemic DL substrate.
Text: as §1

Substrate in data set [6]: NC(Cc1ccccc1O)C(=O)O
Described as above. The class given is biochemical, Drosophila melanogaster. Conditions: 38°C, 40 µM PLP, 150 mM potassium phosphate pH 7.0, racemic DL substrate.
Text: as §1

Substrate in data set [7]: N[C@@H](Cc1c[nH]c2ccc(O)cc12)C(=O)O
Described as above. Type of data set: biochemical, Drosophila melanogaster. To be noted: 38°C, 40 µM PLP, 150 mM potassium phosphate pH 7.0.
Text: as §1

Substrate in data set [8]: N[C@@H](Cc1ccc(O)c(O)c1)C(=O)O
Described as above. Conditions: 38°C, 40 µM PLP, 150 mM potassium phosphate pH 7.0. The class given is biochemical, Drosophila melanogaster.
Text: as §1

Data set [9] deals with the molecule itself. Description: crystal structure; hanging-drop vapor diffusion; 15% PEG 4000, 20% glycerol, 200 mM CaCl2, 100 mM cacodylic acid pH 6.5; molecular replacement with pig DDC (1js3); two molecules in the asymmetric unit.

On to `N[C@@H](Cc1c[nH]c2ccc(O)cc12)C(=O)O` [5-HTP], for which the Michaelis-Menten constant (Km) on drDDC [1] was determined as 1.1 ± 0.1 mM; on drDDC [2] it was 3.5 ± 0.5 mM; on drDDC [3], 0.6 ± 0.1 mM.
Regarding `Cc1ncc(COP(=O)(O)O)c(C=O)c1O` [PLP], the “X-ray crystal structure, 1.75 Å” value at drDDC [4] is listed as “The cofactor PLP binds to K302 through a Schiff base linkage”.
In the case of `NC(Cc1ccccc1O)C(=O)O` (racemic) [o-tyr, DL-o-tyrosine], at drDDC [2] (racemic DL substrate), the Km stood at 4.9 ± 1.5 mM.
Consider `NC(Cc1cccc(O)c1)C(=O)O` (racemic) [m-tyr, DL-m-tyrosine], for which the Km on drDDC [1] (racemic DL substrate) came to 2.6 ± 1.1 mM; on drDDC [2] (racemic DL substrate), 13.3 ± 4.5 mM; on drDDC [3] (racemic DL substrate) it was 11.4 ± 2.2 mM.
`N[C@@H](Cc1ccc(O)c(O)c1)C(=O)O` [DOPA]: the Km was 4.4 ± 0.8 mM on drDDC [1], 5.6 ± 1 mM on drDDC [2] and 4.5 ± 0.9 mM at drDDC [3].

B1: drDDC (Drosophila melanogaster) (protein)
chain: MEAPEFKDFAKTMVDFIAEYLENIRERRVLPEVKPGYLKPLIPDAAPEKPEKWQDVMQDIERVIMPGVTHWHSPKFHAYFPTANSYPAIVADMLSGAIACIGFTWIASPACTELEVVMMDWLGKMLELPAEFLACSGGKGGGVIQGTASESTLVALLGAKAKKLKEVKELHPEWDEHTILGKLVGYCSDQAHSSVERAGLLGGVKLRSVQSENHRMRGAALEKAIEQDVAEGLIPFYAVVTLGTTNSCAFDYLDECGPVGNKHNLWIHVDAAYAGSAFICPEYRHLMKGIESADSFNFNPHKWMLVNFDCSAMWLKDPSWVVNAFNVDPLYLKHDMQGSAPDYRHWQIPLGRRFRALKLWFVLRLYGVENLQAHIRRHCNFAKQFGDLCVADSRFELAAEINMGLVCFRLKGSNERNEALLKRINGRGHIHLVPAKIKDVYFLRMAICSRFTQSEDMEYSWKEVSAAADEMEQEQ
notes: homodimer, PLP holoenzyme; residues 1-475
Regarding B1, the Km in data set [5] was found to be 2.3 ± 1.2 mM; in [6], 1.1 ± 0.3 mM; in data set [7], 0.4 ± 0.04 mM; in data set [8], 2.2 ± 0.3 mM. Besides, the kcat in data set [5] was found to be 3.56 ± 0.673 s⁻¹; in data set [6], 1.85 ± 0.133 s⁻¹; in data set [7], 1.05 ± 0.0233 s⁻¹; in [8], 4.7 ± 0.0267 s⁻¹. Also, the kcat/Km came out at 1550 M⁻¹ s⁻¹ in data set [5], 1680 M⁻¹ s⁻¹ in data set [6], 2620 M⁻¹ s⁻¹ in data set [7] and 2140 M⁻¹ s⁻¹ in [8].

B2: Drosophila melanogaster 3,4-dihydroxyphenylalanine decarboxylase, wild type (enzyme, UniProt P05031-2 1-475, looked up)
chain: MEAPEFKDFAKTMVDFIAEYLENIRERRVLPEVKPGYLKPLIPDAAPEKPEKWQDVMQDIERVIMPGVTHWHSPKFHAYFPTANSYPAIVADMLSGAIACIGFTWIASPACTELEVVMMDWLGKMLELPAEFLACSGGKGGGVIQGTASESTLVALLGAKAKKLKEVKELHPEWDEHTILGKLVGYCSDQAHSSVERAGLLGGVKLRSVQSENHRMRGAALEKAIEQDVAEGLIPFYAVVTLGTTNSCAFDYLDECGPVGNKHNLWIHVDAAYAGSAFICPEYRHLMKGIESADSFNFNPHKWMLVNFDCSAMWLKDPSWVVNAFNVDPLYLKHDMQGSAPDYRHWQIPLGRRFRALKLWFVLRLYGVENLQAHIRRHCNFAKQFGDLCVADSRFELAAEINMGLVCFRLKGSNERNEALLKRINGRGHIHLVPAKIKDVYFLRMAICSRFTQSEDMEYSWKEVSAAADEMEQEQ
modifications: lysine-pyridoxal-5-phosphate (LLP): PLP bound to K302 through a Schiff base (internal aldimine)
notes: the forward primer begins at ATG GAG GCG CCG GAG TTC (MEAPEF); also called drDDC; drDDC WT; source: Escherichia coli DE3, purified (chitin beads, DEAE-Sepharose, Mono-Q, gel filtration)
Take B2: the “stoichiometry N” value in data set [9] worked out at 2.
